Results published in patent publication US20050222029A1 (MYRIAD GENETICS, published 2005).

What was measured:
Assay in all cases: yeast two-hybrid
[1] = target: T1, Mitotic spindle coiled-coil related protein 701-1082 (human, UniProt Q96R06 701-1082)
T1 construct: prey (Gal4 AD-HA fusion)
T1 sequence (looked up): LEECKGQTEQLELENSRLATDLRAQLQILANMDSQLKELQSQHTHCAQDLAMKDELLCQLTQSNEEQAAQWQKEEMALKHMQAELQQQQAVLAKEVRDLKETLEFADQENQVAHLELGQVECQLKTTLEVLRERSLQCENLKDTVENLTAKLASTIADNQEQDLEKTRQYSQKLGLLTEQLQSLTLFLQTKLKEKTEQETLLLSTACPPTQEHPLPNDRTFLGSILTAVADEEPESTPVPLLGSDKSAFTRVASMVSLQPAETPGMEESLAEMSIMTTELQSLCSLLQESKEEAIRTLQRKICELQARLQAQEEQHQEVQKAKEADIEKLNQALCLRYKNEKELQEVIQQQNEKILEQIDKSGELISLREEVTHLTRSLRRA

[2] = target: T2, Mitotic spindle coiled-coil related protein 723-1012 (human, UniProt Q96R06 723-1012)
T2 construct: prey (Gal4 AD-HA fusion)
T2 sequence (looked up): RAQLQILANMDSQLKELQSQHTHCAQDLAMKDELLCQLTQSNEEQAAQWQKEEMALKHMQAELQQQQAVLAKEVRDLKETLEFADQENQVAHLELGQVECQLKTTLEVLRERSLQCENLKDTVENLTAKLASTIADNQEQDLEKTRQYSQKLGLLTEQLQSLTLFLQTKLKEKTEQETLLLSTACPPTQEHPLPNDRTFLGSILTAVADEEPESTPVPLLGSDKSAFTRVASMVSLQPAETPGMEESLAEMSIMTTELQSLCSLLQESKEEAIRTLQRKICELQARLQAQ

Hook2 protein 290-555 = target: T3, Hook2 protein 290-555 (human, UniProt Q96ED9 290-555)
T3 construct: prey (Gal4 AD-HA fusion)
T3 sequence (looked up): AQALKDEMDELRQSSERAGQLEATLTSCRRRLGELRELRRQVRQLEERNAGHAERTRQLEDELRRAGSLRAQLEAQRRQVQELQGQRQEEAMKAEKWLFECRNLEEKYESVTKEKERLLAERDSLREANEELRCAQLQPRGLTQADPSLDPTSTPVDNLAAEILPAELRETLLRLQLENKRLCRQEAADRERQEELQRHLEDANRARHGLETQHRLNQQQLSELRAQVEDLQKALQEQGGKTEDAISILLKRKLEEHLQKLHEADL

Intersection 1 210-633 = target: T4, Intersection 1 210-633 (human, UniProt Q15811 210-633)
T4 construct: prey (Gal4 AD-HA fusion); also called Intersectin 1; ITSN1
T4 sequence (looked up): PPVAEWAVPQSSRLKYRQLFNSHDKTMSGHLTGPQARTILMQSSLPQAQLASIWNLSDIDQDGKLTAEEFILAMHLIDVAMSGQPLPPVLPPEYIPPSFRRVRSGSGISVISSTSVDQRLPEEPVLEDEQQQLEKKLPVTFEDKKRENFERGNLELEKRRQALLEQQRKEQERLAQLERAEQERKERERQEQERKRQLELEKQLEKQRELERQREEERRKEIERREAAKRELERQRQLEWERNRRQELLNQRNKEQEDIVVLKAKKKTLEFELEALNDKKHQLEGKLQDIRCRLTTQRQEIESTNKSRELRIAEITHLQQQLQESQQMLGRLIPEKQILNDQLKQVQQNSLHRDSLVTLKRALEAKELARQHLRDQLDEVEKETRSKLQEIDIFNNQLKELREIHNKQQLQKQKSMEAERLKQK

Pallid 21-172 = target: T5, Pallid 21-172 (human, UniProt Q9UL45 21-172)
T5 construct: prey (Gal4 AD-HA fusion)
T5 sequence (looked up): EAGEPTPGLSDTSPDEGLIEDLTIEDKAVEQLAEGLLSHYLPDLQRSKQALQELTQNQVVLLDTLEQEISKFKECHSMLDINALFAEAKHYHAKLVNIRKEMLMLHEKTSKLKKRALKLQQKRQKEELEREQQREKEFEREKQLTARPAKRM

[3] = target: T6, Serum deprivation response 75-258 (human, UniProt O95810 75-258)
T6 construct: prey (Gal4 AD-HA fusion)
T6 sequence (looked up): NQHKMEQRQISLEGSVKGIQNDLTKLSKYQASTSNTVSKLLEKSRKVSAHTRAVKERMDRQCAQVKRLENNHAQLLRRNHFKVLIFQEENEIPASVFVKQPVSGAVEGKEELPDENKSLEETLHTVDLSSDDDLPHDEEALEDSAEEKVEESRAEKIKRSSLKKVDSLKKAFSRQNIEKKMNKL

[4] = target: T7, GTPase-activiating protein 1 1419-1657 (human, UniProt P46940 1419-1657)
T7 construct: prey (Gal4 AD-HA fusion); also called IQGAP1; IQGAP
T7 sequence (looked up): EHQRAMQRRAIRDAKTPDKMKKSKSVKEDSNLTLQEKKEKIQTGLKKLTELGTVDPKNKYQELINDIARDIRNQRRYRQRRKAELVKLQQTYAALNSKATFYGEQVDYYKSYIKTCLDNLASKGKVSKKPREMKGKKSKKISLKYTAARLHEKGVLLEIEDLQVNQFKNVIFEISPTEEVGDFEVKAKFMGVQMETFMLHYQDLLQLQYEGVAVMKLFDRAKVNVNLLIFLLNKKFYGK

Keratin 5 282-448 = target: T8, Keratin 5 282-448 (human, UniProt P13647 282-448)
T8 construct: prey (Gal4 AD-HA fusion)
T8 sequence (looked up): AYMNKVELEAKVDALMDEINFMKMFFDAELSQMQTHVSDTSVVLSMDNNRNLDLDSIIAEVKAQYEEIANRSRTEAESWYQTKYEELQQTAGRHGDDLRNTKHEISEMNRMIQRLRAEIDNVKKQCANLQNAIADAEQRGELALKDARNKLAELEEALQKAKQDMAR

[5] = target: T9, GTPase-activiating protein 1 1308-1606 (human, UniProt P46940 1308-1606)
T9 construct: prey (Gal4 AD-HA fusion); also called IQGAP1; IQGAP
T9 sequence (looked up): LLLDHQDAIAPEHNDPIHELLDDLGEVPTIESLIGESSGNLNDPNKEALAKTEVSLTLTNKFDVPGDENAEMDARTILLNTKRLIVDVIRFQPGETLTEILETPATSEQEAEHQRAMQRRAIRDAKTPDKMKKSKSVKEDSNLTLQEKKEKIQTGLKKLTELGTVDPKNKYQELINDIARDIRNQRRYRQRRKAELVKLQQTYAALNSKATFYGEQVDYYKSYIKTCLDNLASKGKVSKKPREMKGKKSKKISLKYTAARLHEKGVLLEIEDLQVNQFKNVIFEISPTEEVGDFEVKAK

Measured: binding result

B1: Tumor Suppressor (TSG101) 240-391 (other, human, UniProt Q99816 240-390, looked up)
chain: WRMKEEMDRAQAELNALKRTEEDLKKGHQKLEEMVTRLDQEVAEVDKNIELLKKKDEELSSALEKMENQSENNDIDEVIIPTAPLYKQILNLYAEENAIEDTIFYLGEALRRGVIDLDVFLKHVRLLSRKQFQLRALMQKARKTAGLSDLY
notes: range 240-391; bait (Gal4 DBD fusion); also called TSG101 240-390
binds: all assays above
